Reference: patent US20070078102A1, “NF-kB oligonucleotide decoy molecules” (published 2007)

B1: 153/154 H10/H8 (dsDNA)
DNA 1: AGTTGAGGACTTTCCAGGC
DNA 2: GCCTGGAAAGTCCTCAACT
modifications: strand 153: 10 3'-most linkages PS, strand 154: 8 3'-most PS
B2: NF-κB p50 from nuclear extract of LPS stimulated THP-1 cells (human monocyte cell line) (other, UniProt P19838 1-433, looked up)
chain: MAEDDPYLGRPEQMFHLDPSLTHTIFNPEVFQPQMALPTDGPYLQILEQPKQRGFRFRYVCEGPSHGGLPGASSEKNKKSYPQVKICNYVGPAKVIVQLVTNGKNIHLHAHSLVGKHCEDGICTVTAGPKDMVVGFANLGILHVTKKKVFETLEARMTEACIRGYNPGLLVHPDLAYLQAEGGGDRQLGDREKELIRQAALQQTKEMDLSVVRLMFTAFLPDSTGSFTRRLEPVVSDAIYDSKAPNASNLKIVRMDRTAGCVTGGEEIYLLCDKVQKDDIQIRFYEEEENGGVWEGFGDFSPTDVHRQFAIVFKTPKYKDINITKPASVFVQLRRKSDLETSEPKPFLYYPEIKDKEEVQRKRQKLMPNFSDSFGGGSGAGAGGGGMFGSGGGGGGTGSTGPGYSFPHYGFPTYGGITFHPGTTKSNAGMKHG
B3: 153/154 H8/H10 (dsDNA)
DNA 1: AGTTGAGGACTTTCCAGGC
DNA 2: GCCTGGAAAGTCCTCAACT
modifications: strand 153: 8 3'-most linkages PS, strand 154: 10 3'-most PS
B4: 153/154 H8/H8 (dsDNA)
DNA 1: AGTTGAGGACTTTCCAGGC
DNA 2: GCCTGGAAAGTCCTCAACT
modifications: 8 3'-most linkages PS on both strands
B5: 153/154 H11/PO (dsDNA)
DNA 1: AGTTGAGGACTTTCCAGGC
DNA 2: GCCTGGAAAGTCCTCAACT
modifications: strand 153: 11 3'-most linkages PS, strand 154 all PO
B6: decoy 113/114 C-Z (HIV NF-kB promoter) (dsDNA)
DNA 1: AGTTGAGGGGACTTTCCCAGGC
DNA 2: GCCTGGGAAAGTCCCCTCAACT
B7: 153/154 H10/H10 (dsDNA)
DNA 1: AGTTGAGGACTTTCCAGGC
DNA 2: GCCTGGAAAGTCCTCAACT
modifications: 10 3'-most linkages PS on both strands
B8: 153/154 H9/H9 (dsDNA)
DNA 1: AGTTGAGGACTTTCCAGGC
DNA 2: GCCTGGAAAGTCCTCAACT
modifications: 9 3'-most linkages PS on both strands
B9: 153/154 H5/PO (dsDNA)
DNA 1: AGTTGAGGACTTTCCAGGC
DNA 2: GCCTGGAAAGTCCTCAACT
modifications: strand 153: 5 3'-most linkages PS, strand 154 all PO

How the values were obtained:
[1] = molecular target: T1, NF-kB p50/p50 homodimer (NFKB1) (Homo sapiens, UniProt P19838 P19838:1-433); test: competition; EMSA competition vs HIV NF-kB probe 113/114; conditions: protein: extract; tags: endogenous, nuclear extract of LPS-stimulated THP-1 cells; chain copies: 2 (stated)
Text: (§1) The EMSA assay was employed to characterize oligonucleotide decoys for the NF-κB transcription factor. […] Using the above modified oligonucleotides to compete for binding for the above-mentioned NF-κB family members, it was possible to compare the binding affinity of these oligonucleotides against the high affinity radiolabeled probe and each other. This assay has also enabled the design of a decoy which selectively binds particular members of the NF-κB family. By using increasing concentrations of various oligonucleotides, it was observed that, by deleting or changing targeted residues in the binding site, it was possible to specifically decrease the binding of the decoy molecule to p50/p50 homodimers, while retaining the affinity for p65/p50 and cRel/p50 heterodimers.
(§2) The NF-κB gel shift assays (EMSA) were performed as follows. A double-stranded oligonucleotide containing a consensus NF-κB binding site (5′ […] 3′) (SEQ ID NO: 78) was end-labeled with γ³²P-ATP using T4 Polynucleotide Kinase (Promega). Alternatively, a double-stranded ODN containing a consensus NF-κB binding site from the IL-6 promoter (5′ […] 3′) (SEQ ID NO: 94) was end-labeled with γ³²P-ATP using T4 Polynucleotide Kinase (Promega). One microgram of a nuclear extract prepared from LPS stimulated THP-1 cells (human monocyte cell line) was incubated with 35 fmol of radiolabeled probe in the presence or absence of competing unlabeled NF-κB double-stranded oligonucleotides (dsODN) or scrambled dsODN. The incubations were carried out at room temperature for 30 minutes in a 20 μl reaction volume composed of 10 mM Tris-HCl pH 8, 100 mM KCL, 5 mM MgCl2, 2 mM DTT, 10% Glycerol, 0.1% NP-40, 0.025% BSA and 1 μg Poly-dIdC. The reactions were loaded onto a 6% polyacrylamide gel, subjected to electrophoresis and dried. The dried gels were imaged and quantitated using a Typhoon 8600 PhosphorImager (Amersham) and ImageQuant software.

[2] = molecular target: T2, NF-κB p65 from nuclear extract of LPS stimulated THP-1 cells (human monocyte cell line) (human, UniProt Q04206 1-551); test: EMSA with antibody supershift, THP-1 nuclear extract; heterodimer on DNA probe
T2 construct: also called RelA
Protocol: as §2, with “software. […]” for “software.”

[3] = molecular target: T1, NF-kB p50/p50 homodimer (NFKB1); test: EMSA; competition vs 32P 113/114 probe; conditions: protein: extract; tags: none; nuclear extract of LPS-stimulated THP-1 cells; chain copies: 2 (stated homodimer)
Text: as §1, §2

[4] = molecular target: NF-kB p65/p50 heterodimer (RelA/NFKB1) (Homo sapiens, UniProt Q04206;P19838 Q04206:1-551,P19838:1-433); test: EMSA; competition vs 32P 113/114 probe, THP-1 nuclear extract, RT; conditions: protein: extract; tags: none; nuclear extract of LPS-stimulated THP-1 cells
Text: as §1
The NF-κB gel shift assays (EMSA) were performed as follows. A double-stranded oligonucleotide containing a consensus NF-κB binding site (5′ […] 3′) (SEQ ID NO: 78) was end-labeled with γ³²P-ATP using T4 Polynucleotide Kinase (Promega). Alternatively, a double-stranded ODN containing a consensus NF-κB binding site from the IL-6 promoter (5′ […] 3′) (SEQ ID NO: 94) was end-labeled with γ³²P-ATP using T4 Polynucleotide Kinase (Promega). […] The dried gels were imaged and quantitated using a Typhoon 8600 PhosphorImager (Amersham) and ImageQuant software.

Sequence of NF-kB p65/p50 heterodimer (RelA/NFKB1) (Q04206 whole entry, one chain of several): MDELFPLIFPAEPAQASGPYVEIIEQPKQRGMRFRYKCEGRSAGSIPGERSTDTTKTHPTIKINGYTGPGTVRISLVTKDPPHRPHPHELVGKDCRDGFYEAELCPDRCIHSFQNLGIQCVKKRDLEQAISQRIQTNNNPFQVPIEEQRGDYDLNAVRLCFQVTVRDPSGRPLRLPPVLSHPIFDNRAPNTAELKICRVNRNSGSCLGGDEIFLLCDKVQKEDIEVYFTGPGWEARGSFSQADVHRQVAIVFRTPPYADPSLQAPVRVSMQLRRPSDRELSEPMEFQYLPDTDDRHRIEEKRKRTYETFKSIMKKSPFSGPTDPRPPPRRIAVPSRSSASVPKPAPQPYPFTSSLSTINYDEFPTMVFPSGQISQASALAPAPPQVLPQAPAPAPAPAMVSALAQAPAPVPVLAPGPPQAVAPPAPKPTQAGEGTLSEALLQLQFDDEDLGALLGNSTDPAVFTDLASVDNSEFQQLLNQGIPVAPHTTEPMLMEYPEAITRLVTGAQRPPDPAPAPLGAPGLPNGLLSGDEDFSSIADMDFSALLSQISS
T2 sequence (Q04206 whole entry): as the sequence (Q04206 whole entry, one chain of several) above

Row | Binder | IC50 [1] [fold molar excess] | other results
1 | B1 | 21 | 
2 | B2 |  | binding result [2]: binds
3 | B3 | 39 | 
4 | B4 | 53 | 
5 | B5 | 33 | 
6 | B6 |  | IC50 [3]: 5 fold molar excess; IC50 [4]: 5 fold molar excess
7 | B7 | 42 | 
8 | B8 | 30 | 
9 | B9 | 83 | 
